Data as given in US20170037111A1, “Novel peptides and combination of peptides for use in immunotherapy against ovarian cancer and other cancers” (immatics biotechnologies GmbH, priority 2015, published 2017).

What follows are substances tested against HLA-A*02:01 (Homo sapiens, UniProt P04439, D140Y/D185E/D98H/E176V/E277Q/G131W/G231S/I119V/I121R/I166T/I218V/L300P/L318F/N151K/N90K/P208A/P217A/Q86G/Q94H/R138H/R169H/T345S) (assay: MHC binding assay (UV-ligand exchange, β2m ELISA, peptide exchange yield)). Settings: MHC class I binding score; binding to HLA-A*02:01 ranged by peptide exchange yield (UV-ligand exchange, β2m ELISA).
Method in brief: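 Peptide–HLA-A*02:01 complexes were formed by UV-mediated exchange of a UV-cleavable ligand for the test peptide. Exchange yield was measured by capturing complexes on streptavidin, detecting with HRP anti-β2m antibody (1 h, 37°C) and reading TMB absorbance at 450 nm.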

Substance | Peptide exchange
214 (FLLDLDPLLL; listed as Homo sapiens) [compound 214] | ″+++″ (≧50% = +++)
216 (NLWEDPYYL; listed as Homo sapiens) [compound 216] | ″+++″ (≧50% = +++)
217 (ALIHPVSTV; listed as Homo sapiens) [compound 217] | ″++″ (≧20% = ++)
218 (SALEELVNV; listed as Homo sapiens) [compound 218] | ″++″ (≧20% = ++)
219 (KLSDIGITV; listed as Homo sapiens) [compound 219] | ″+++″ (≧50% = +++)
220 (LLQKFVPEI; listed as Homo sapiens) [compound 220] | ″++″ (≧20% = ++)
221 (ALYEEGLLL; listed as Homo sapiens) [compound 221] | ″++″ (≧20% = ++)
222 (NLIENVQRL; listed as Homo sapiens) [compound 222] | ″++″ (≧20% = ++)
223 (ALLENIALYL; listed as Homo sapiens) [compound 223] | ″+++″ (≧50% = +++)
224 (TLIDAQWVL; listed as Homo sapiens) [compound 224] | ″+++″ (≧50% = +++)
225 (SLLKVLPAL; listed as Homo sapiens) [compound 225] | ″+++″ (≧50% = +++)
226 (MLYVVPIYL; listed as Homo sapiens) [compound 226] | ″++″ (≧20% = ++)
227 (ALMNTLLYL; listed as Homo sapiens) [compound 227] | ″++″ (≧20% = ++)
228 (AMQEYIAVV; listed as Homo sapiens) [compound 228] | ″++″ (≧20% = ++)
229 (RLPGPLGTV; listed as Homo sapiens) [compound 229] | ″++″ (≧20% = ++)
230 (ILVDWLVEV; listed as Homo sapiens) [compound 230] | ″+″ (≧10% = +)
231 (FLSPQQPPLLL; listed as Homo sapiens) [compound 231] | ″++″ (≧20% = ++)
232 (ALLEAQDVELYL; listed as Homo sapiens) [compound 232] | ″++″ (≧20% = ++)
233 (VLSETLYEL; listed as Homo sapiens) [compound 233] | ″++″ (≧20% = ++)
234 (ALMEDTGRQML; listed as Homo sapiens) [compound 234] | ″++″ (≧20% = ++)
235 (YLNDLHEVLL; listed as Homo sapiens) [compound 235] | ″++++″ (≧75% = ++++)
236 (GLLEAKVSL; listed as Homo sapiens) [compound 236] | ″+++″ (≧50% = +++)
237 (ALLEASGTLLL; listed as Homo sapiens) [compound 237] | ″++++″ (≧75% = ++++)
238 (YLISFQTHI; listed as Homo sapiens) [compound 238] | ″+++″ (≧50% = +++)
239 (AAFAGKLLSV; listed as Homo sapiens) [compound 239] | ″+++″ (≧50% = +++)

Substance | Peptide exchange
240 (ILLEQAFYL; listed as Homo sapiens) [compound 240] | ″+++″ (≧50% = +++)
241 (SLVEVNPAYSV; listed as Homo sapiens) [compound 241] | ″+++″ (≧50% = +++)
243 (LLLNELPSV; listed as Homo sapiens) [compound 243] | ″+++″ (≧50% = +++)
244 (SLFGGTEITI; listed as Homo sapiens) [compound 244] | ″+++″ (≧50% = +++)
245 (SMIDDLLGV; listed as Homo sapiens) [compound 245] | ″+++″ (≧50% = +++)
246 (LLWEVVSQL; listed as Homo sapiens) [compound 246] | ″+++″ (≧50% = +++)
248 (FLFPNQYVDV; listed as Homo sapiens) [compound 248] | ″+++″ (≧50% = +++)
249 (LLDGFLVNV; listed as Homo sapiens) [compound 249] | ″+++″ (≧50% = +++)
250 (ALSEEGLLVYL; listed as Homo sapiens) [compound 250] | ″+++″ (≧50% = +++)
251 (ALYTGFSILV; listed as Homo sapiens) [compound 251] | ″++″ (≧20% = ++)
252 (LLIGTDVSL; listed as Homo sapiens) [compound 252] | ″+++″ (≧50% = +++)
253 (GLDAATATV; listed as Homo sapiens) [compound 253] | ″++″ (≧20% = ++)
254 (TLLAFIMEL; listed as Homo sapiens) [compound 254] | ″+++″ (≧50% = +++)
255 (VLASYNLTV; listed as Homo sapiens) [compound 255] | ″+++″ (≧50% = +++)
256 (FLPPEHTIVYI; listed as Homo sapiens) [compound 256] | ″+++″ (≧50% = +++)
257 (SIFSAFLSV; listed as Homo sapiens) [compound 257] | ″+++″ (≧50% = +++)
258 (ELAERVPAI; listed as Homo sapiens) [compound 258] | ″++″ (≧20% = ++)
261 (YVLEFLEEI; listed as Homo sapiens) [compound 261] | ″++″ (≧20% = ++)
262 (LLWGDLIWL; listed as Homo sapiens) [compound 262] | ″+++″ (≧50% = +++)
263 (LLVSNLDFGV; listed as Homo sapiens) [compound 263] | ″+++″ (≧50% = +++)
264 (SLQEQLHSV; listed as Homo sapiens) [compound 264] | ″+++″ (≧50% = +++)
265 (LLFGGTKTV; listed as Homo sapiens) [compound 265] | ″++″ (≧20% = ++)
266 (KITDTLIHL; listed as Homo sapiens) [compound 266] | ″+++″ (≧50% = +++)
267 (ALQDFLLSV; listed as Homo sapiens) [compound 267] | ″+++″ (≧50% = +++)
269 (RVLEVGALQAV; listed as Homo sapiens) [compound 269] | ″++″ (≧20% = ++)

Second part, the substance after the results:

Peptide exchange | Substance
″++″ (≧20% = ++) | 270 (LLLDEEGTFSL; listed as Homo sapiens) [compound 270]
″+++″ (≧50% = +++) | 271 (LVYPLELYPA; listed as Homo sapiens) [compound 271]
″+++″ (≧50% = +++) | 272 (ALGNTVPAV; listed as Homo sapiens) [compound 272]
″++″ (≧20% = ++) | 273 (NLFQSVREV; listed as Homo sapiens) [compound 273]
″++″ (≧20% = ++) | 274 (SLLFSLFEA; listed as Homo sapiens) [compound 274]
″++″ (≧20% = ++) | 275 (YLVYILNEL; listed as Homo sapiens) [compound 275]
″+++″ (≧50% = +++) | 276 (ALFTFSPLTV; listed as Homo sapiens) [compound 276]
″++″ (≧20% = ++) | 277 (LLPPLESLATV; listed as Homo sapiens) [compound 277]
″++″ (≧20% = ++) | 278 (QLLDVVLTI; listed as Homo sapiens) [compound 278]
″++″ (≧20% = ++) | 279 (ALWGGTQPLL; listed as Homo sapiens) [compound 279]
″+++″ (≧50% = +++) | 280 (VLPDPEVLEAV; listed as Homo sapiens) [compound 280]
″+++″ (≧50% = +++) | 281 (ILRESTEEL; listed as Homo sapiens) [compound 281]
″+++″ (≧50% = +++) | 282 (LLADVVPTT; listed as Homo sapiens) [compound 282]
″+++″ (≧50% = +++) | 284 (ILLSQTTGV; listed as Homo sapiens) [compound 284]
″+++″ (≧50% = +++) | 285 (QLLHVGVTV; listed as Homo sapiens) [compound 285]
″+++″ (≧50% = +++) | 286 (YLFPGIPEL; listed as Homo sapiens) [compound 286]
″+++″ (≧50% = +++) | 287 (FLNEFFLNV; listed as Homo sapiens) [compound 287]
″+++″ (≧50% = +++) | 288 (NLINEINGV; listed as Homo sapiens) [compound 288]
″++++″ (≧75% = ++++) | 289 (VLLEIEDLQV; listed as Homo sapiens) [compound 289]
″+++″ (≧50% = +++) | 295 (VLDRESPNV; listed as Homo sapiens) [compound 295]
″+++″ (≧50% = +++) | 296 (FMEGAIIYV; listed as Homo sapiens) [compound 296]
″+++″ (≧50% = +++) | 297 (VLADIELAQA; listed as Homo sapiens) [compound 297]
″+++″ (≧50% = +++) | 298 (VMITKLVEV; listed as Homo sapiens) [compound 298]
″+++″ (≧50% = +++) | 299 (YLLETSGNL; listed as Homo sapiens) [compound 299]
″+++″ (≧50% = +++) | 300 (ALLGQTFSL; listed as Homo sapiens) [compound 300]
″+++″ (≧50% = +++) | 301 (FLVEDLVDSL; listed as Homo sapiens) [compound 301]
″+++″ (≧50% = +++) | 302 (ALLQEGEVYSA; listed as Homo sapiens) [compound 302]
″++++″ (≧75% = ++++) | 303 (AILPQLFMV; listed as Homo sapiens) [compound 303]
